For test [1], the target named is recombinant human IgG1λ isotype control antibody (clone AbD00264_hIgG1) (human, UniProt P01857 = IgG part). The test can be described thus: BLI. In general terms: Biolayer interferometry detects binding as a change in optical thickness at a sensor tip.
Test [2] addresses recombinant mouse IgG1κ isotype control antibody (clone P3.6.2.8.1) (mouse, UniProt P01868 = IgG part). As to the kind of experiment: BLI.

B1: anti-human λ VHH (HuFab lambda 1) (VHH)
VHH: QVQLQDSGGGLVQPGGSLRLSCAASGFTLDYYAIGWFRQAPGKEREGVSCISSSDGSSDGYTYYADSVKGRFTISRDNAKNTVYLQMNNLKPEDTAVYYCAARLFGVATTDPSYFDSWGQGTQVTVSS
As to B1, the koff in test [1] worked out at 0.000246 s⁻¹.

B2: anti-mouse κ VHH (TP1170) (VHH)
VHH: QVQLVESGGGWVQPGGSLRLSCAASGFTFSDTAMMWVRQAPGKGREWVAAIDTGGGYTYYADSVKGRFTISRDNAKNTLYLQMNSLKPEDTARYYCAKTYSGNYYSNYTVANYGTTGRGTLVTVSS
For B2, the koff in test [2] amounted to 1.18e-05 s⁻¹.

What is called koff is the rate constant with which the complex falls apart.

The values are drawn from article PMC12167710 (2024).
